Paper PMC2212291

Biological target: mouse class I molecule H-2 D^b (mouse | mouse (endogenous in MC57))

Substance	binding plus extraction efficiency
synthetic LCMV peptide NP396-404	50%
synthetic LCMV peptide GP276-286	38%
synthetic LCMV peptide GP33-41	17%
